The target in test [1] is T1, VEGF (human, UniProt P15692-4 27-191, limits assumed).
T1 construct: Biotinylated in the KDR-IgG ELISA, amine-coupled to the chip in BIAcore; also called biotinylated VEGF; vascular endothelial growth factor
Nature of the test: BIAcore-2000 SPR, relative to Y0192. How it is done:
(§1) BIAcore Analysis: The VEGF-binding affinities of Fab fragments were calculated from association and dissociation rate constants measured using a BIAcore-2000™ surface plasmon resonance system (BIAcore, Inc., Piscataway, N.J.). A biosensor chip was activated for covalent coupling of VEGF using N-ethyl-N′-(3-dimethylaminopropyl)-carbodiimide hydrochloride (EDC) and N-hydroxysuccinimide (NHS) according to the supplier's (BIAcore, Inc., Piscataway, N.J.) instructions. VEGF was buffered exchanged into 20 mM sodium acetate, pH 4.8 and diluted to approximately 50 μg/mL. An aliquot (35 μL) was injected at a flow rate of 2 μL/min to achieve approximately 700-1400 response units (RU) of coupled protein. Finally, 1 M ethanolamine was injected as a blocking agent.
(§2) For kinetics measurements, two-fold serial dilutions of Fab were injected in PBS/TWEEN™ buffer (0.05% TWEEN 20™ in phosphate buffered saline) at 25° C. at a flow rate of 10 μL/min. […] Equilibrium dissociation constants, Kd's from surface plasmon resonance (SPR) measurements were calculated as koff/kon.
Target sequence in this assay (P15692 other isoform, or with tags, fused parts or gaps limits assumed): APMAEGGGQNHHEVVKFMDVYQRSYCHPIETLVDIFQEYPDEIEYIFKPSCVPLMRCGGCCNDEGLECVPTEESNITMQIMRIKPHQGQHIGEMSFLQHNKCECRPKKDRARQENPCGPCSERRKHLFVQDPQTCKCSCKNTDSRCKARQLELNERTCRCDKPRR
(In SPR one partner is held on a chip, and binding of the other changes the refractive index at the surface.)

Test [2] addresses T1, VEGF. In words: BIAcore-2000 SPR, Fab over immobilized VEGF, 25 C. How it is done: as §1, §2
Test [3] deals with T1, VEGF. In words: competitive phage-ELISA, relative to pY0192. How it is done:
In such an assay, phages were first serially diluted to determine a fractional saturation titer which was then held constant and used to incubate with varying concentrations of VEGF (starting at 200 nM to 0 nM) in solution. The mixture was then transferred onto plate precoated with VEGF (2 μg/mL) and blocked with 5% instant milk, and allowed to equilibrate for 1 hour at room temperature. Thereafter, the phage solution was removed and the remaining bound phages were detected with a solution of rabbit anti-phage antibody mixed with goat anti-rabbit conjugate of horse radish peroxidase. After an hour incubation at room temperature, the plate was developed with a chromogenic substrate, o-phenylenediamine (Sigma). The reaction was stopped with addition of ½ volume of 2.5 M H₂SO₄. Optical density at 492 nm was measured on a spectrophotometric plate reader.
IC50's were determined in a competitive phage-ELISA assay.
Target sequence in this assay (P15692 other isoform, or with tags, fused parts or gaps limits assumed): as above

The target of the next test is T2, VEGF121 (human, UniProt P15692 27-147).
T2 construct: mature; Immobilized on the biosensor chip via primary amino groups; also called Purified VEGF121
T2 sequence (looked up): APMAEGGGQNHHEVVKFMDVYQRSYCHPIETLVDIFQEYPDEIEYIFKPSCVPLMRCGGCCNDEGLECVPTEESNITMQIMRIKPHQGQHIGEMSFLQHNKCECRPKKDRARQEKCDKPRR
Nature of the test: BIAcore SPR, Fab over immobilized VEGF121. How it is done:
VEGF₁₂₁ was covalently immobilized on the biosensorchip via primary amino groups. Binding of humanized A4.6.1 Fab variants was measured by flowing solutions of Fab in PBS/0.05% TWEEN 20™ over the chip at a flow rate of 20 μL/min. Following each binding measurement, residual Fab was stripped from the immobilized ligand by washing with 5 μL of 50 mM aqueous HCl at 3 μL/min. Binding profiles were analyzed by nonlinear regression using a simple monovalent binding model (BIAevaluation software v2.0; Pharmacia).

Changes are numbered by the printed parent chain. Names and notes keep the numbering of the source.

Broadly, the Kd is the constant that tells how readily two partners part at equilibrium. The low end stands for tighter binding, the high end for weaker binding. As usually defined, the koff is the rate constant with which the complex falls apart. A high value points to fast dissociation. As a reminder, the kon is the rate constant with which the complex forms.

B1: Y0238-1 (Fab, V domains shown)
VH: EVQLVESGGGLVQPGGSLRLSCAASGYTFTNYGINWVRQAPGKGLEWVGWINTYTGEPTYAADFKRRFTFSLDTSKSTAYLQMNSLRAEDTAVYYCAKYPYYRGTSHWYFDVWGQGTL
VL: DIQLTQSPSSLSASVGDRVTITCRANEQLSNYLNWYQQKPGKAPKVLIYFTSSLHSGVPSRFSGSGSGTDFTLTISSLQPEDFATYYCQQYSTVPWTFGQGTKVEIKR
notes: From library YC-81 on the pY0192 template; Soluble Fab
As for B1, the “Kd (wt)/Kd (mut)” value with VEGF [1] amounted to 7.3 ratio. In the test with VEGF [2], this molecule had a dissociation constant (Kd) of 0.4 nM, a koff of 9e-06 s⁻¹ and a kon of 26000 M⁻¹ s⁻¹.

B2: pY0192 VL T93A (Fab, V domains shown)
VH: B1 VH with Y101H, R103Y, T105S
VL: B1 VL with T93A
notes: Ala-scan variant of pY0192; Fab on phage
Turning to B2, the “IC50 (mut)/IC50 (wt)” value with VEGF [3] was found to be 1 ratio.

B3: Y0243-1 (Fab, V domains shown)
VH: B1 VH with T28D, N31H, I34M, Y101H, R103Y, T105S
VL: B1 VL
notes: Soluble Fab
B3: the “Kd (wt)/Kd (mut)” value with VEGF [1] was determined as 4.1 ratio. Also, in the test with VEGF [2], binding was characterised by a dissociation constant (Kd) of 0.7 nM, the koff worked out at 4.5e-05 s⁻¹ and the kon came out at 67000 M⁻¹ s⁻¹.

B4: pY0192 VL Y91A (Fab, V domains shown)
VH: B1 VH with Y101H, R103Y, T105S
VL: B1 VL with Y91A
notes: as for B2
With B4, in the test with VEGF [3], the “IC50 (mut)/IC50 (wt)” value stood at 14 ratio.

B5: pY0192 VL T51A (Fab, V domains shown)
VH: B1 VH with Y101H, R103Y, T105S
VL: B1 VL with T51A
notes: as for B2
Consider B5, for which the “IC50 (mut)/IC50 (wt)” value in the test with VEGF [3] was determined as 1 ratio.

B6: Y0238-10 (Fab, V domains shown)
VH: B1 VH with G104N
VL: B1 VL
notes: as for B1
Take B6: the “Kd (wt)/Kd (mut)” value in the test with VEGF [1] was found to be 4.8 ratio. In the test with VEGF [2], this molecule yielded a Kd of 0.6 nM, an off-rate constant (koff) of 9e-06 s⁻¹ and a kon of 16000 M⁻¹ s⁻¹.

B7: pY0192 VL S53A (Fab, V domains shown)
VH: B1 VH with Y101H, R103Y, T105S
VL: B1 VL with S53A
notes: as for B2
On to B7, for which the “IC50 (mut)/IC50 (wt)” value with VEGF [3] stood at 1 ratio.

B8: Y0244-1 (Fab, V domains shown)
VH: B1 VH with L72V, T74V, Y101H, R103Y, T105S
VL: B1 VL
notes: Soluble Fab
On to B8, for which the “Kd (wt)/Kd (mut)” value in the test with VEGF [1] amounted to 3.6 ratio. Also, in the test with VEGF [2], the Kd was determined as 8 nM, the koff is 0.00027 s⁻¹ and the kon was 34000 M⁻¹ s⁻¹.

B9: pY0192 VL T97A (Fab, V domains shown)
VH: B1 VH with Y101H, R103Y, T105S
VL: B1 VL with T97A
notes: as for B2
On to B9, for which the “IC50 (mut)/IC50 (wt)” value in the test with VEGF [3] was found to be 1 ratio.

B10: Y0238-5 (Fab, V domains shown)
VH: B1 VH with R103I, G104A, T105K
VL: B1 VL
notes: as for B1
Take B10: the “Kd (wt)/Kd (mut)” value with VEGF [1] was 3.2 ratio. In the test with VEGF [2], this molecule returned a Kd of 0.9 nM, a koff of 8e-06 s⁻¹ and a kon of 8000 M⁻¹ s⁻¹.

B11: pY0192 VL Y32A (Fab, V domains shown)
VH: B1 VH with Y101H, R103Y, T105S
VL: B1 VL with Y32A
notes: Ala-scan variant of pY0192; Fab on phage; also called Y32A (VL)
As for B11, in the test with VEGF [3], the “IC50 (mut)/IC50 (wt)” value amounted to 2 ratio.

B12: pY0192 VL S30A (Fab, V domains shown)
VH: B1 VH with Y101H, R103Y, T105S
VL: B1 VL with S30A
notes: as for B2
For the molecule B12, the “IC50 (mut)/IC50 (wt)” value with VEGF [3] worked out at 2 ratio.

B13: pY0192 VL V94A (Fab, V domains shown)
VH: B1 VH with Y101H, R103Y, T105S
VL: B1 VL with V94A
notes: as for B2
Turning to B13, the “IC50 (mut)/IC50 (wt)” value with VEGF [3] amounted to 2 ratio.

B14: pY0192 VL S56A (Fab, V domains shown)
VH: B1 VH with Y101H, R103Y, T105S
VL: B1 VL with S56A
notes: as for B2
B14: in the test with VEGF [3], the “IC50 (mut)/IC50 (wt)” value is 1 ratio.

B15: pY0192 VL S52A (Fab, V domains shown)
VH: B1 VH with Y101H, R103Y, T105S
VL: B1 VL with S52A
notes: as for B2
For the molecule B15, the “IC50 (mut)/IC50 (wt)” value in the test with VEGF [3] worked out at 1 ratio.

B16: pY0192 VL S92A (Fab, V domains shown)
VH: B1 VH with Y101H, R103Y, T105S
VL: B1 VL with S92A
notes: as for B2
In the case of B16, the “IC50 (mut)/IC50 (wt)” value in the test with VEGF [3] stood at 1 ratio.

B17: hu2.1 (Fab, name in Kabat numbering, V domains shown)
VH: EVQLVESGGGLVQPGGSLRLSCAASGYTFTNYGMNWIRQAPGKGLEWVGWINTYTGEPTYAADFKRRFTISRDNSKNTVYLQMNSLRAEDTAVYYCAKYPHYYGSSHWYFDVWGQGTLVTVSS
VL: DIQMTQSPSSLSASVGDRVTITCSASQDISNYLNWYQQKPGKAPKLLIYFTSSLHSGVPSRFSGSGSGTDYTLTISSLQPEDFATYYCQQYSTVPWTFGQGTKVEIK
notes: soluble Fab with human constant domains
For B17, in the test with VEGF121, the “KD(A4.6.1)/KD(mut) as headed (values read as KD(mut)/KD(A4.6.1))” value (shortened to “KD(A4.6.1)/KD(mut) as headed”) amounted to 170 ratio, the dissociation constant (Kd) was 260 nM, the koff worked out at 0.0018 s⁻¹ and the kon was 7000 M⁻¹ s⁻¹.

B18: hu2.7 (Fab, name in Kabat numbering, V domains shown)
VH: B17 VH
VL: B17 VL with M4L, Y71F
notes: as for B17
Turning to B18, in the test with VEGF121, the “KD(A4.6.1)/KD(mut) as headed” value came to 230 ratio, binding was characterised by a dissociation constant (Kd) of 360 nM, the koff was 0.0024 s⁻¹ and the kon turned out to be 6700 M⁻¹ s⁻¹.

B19: hu2.2 (Fab, name in Kabat numbering, V domains shown)
VH: B17 VH
VL: B17 VL with M4L
notes: as for B17
As for B19, in the test with VEGF121, the “KD(A4.6.1)/KD(mut) as headed” value was determined as 210 ratio, the Kd was found to be 340 nM, the off-rate constant (koff) came to 0.0016 s⁻¹ and the kon stood at 4700 M⁻¹ s⁻¹.

B20: hu2.6 (Fab, name in Kabat numbering, V domains shown)
VH: B17 VH with F68T, R72L, N74T, K76A, N77S
VL: B17 VL with M4L, Y71F
notes: as for B17
On to B20, for which, in the test with VEGF121, the “KD(A4.6.1)/KD(mut) as headed” value was 40 ratio, the Kd is 67 nM, the koff turned out to be 0.00045 s⁻¹ and the kon was 6700 M⁻¹ s⁻¹.

B21: hu2.10 (Fab, V domains shown)
VH: B17 VH with R72L, N74T, K76A, N77S
VL: B17 VL
notes: Soluble Fab with human constant domains; also called consensus clone hu2.10
Turning to B21, in the test with VEGF121, the “KD(A4.6.1)/KD(mut) as headed” value turned out to be 35 ratio, binding was put at a Kd of 55 nM, the “fold tighter KD than hu2.0” value was no less than 125 fold and the koff was 0.00035 s⁻¹. The kon with VEGF121 worked out at 6300 M⁻¹ s⁻¹.

B22: hu2.10V (Fab, V domains shown)
VH: B17 VH with R72L, N74T, K76A, N77S
VL: B17 VL with L46V
notes: Soluble Fab with human constant domains; also called hu2.10 with mutation VL Leu->Val
In the case of B22, in the test with VEGF121, the “KD(A4.6.1)/KD(mut) as headed” value was 5.8 ratio, the Kd worked out at 9.3 nM, the “fold improvement in KD vs hu2.10” value was found to be 6 fold and the koff is 0.00018 s⁻¹. The kon in the test with VEGF121 turned out to be 20000 M⁻¹ s⁻¹.

The record behind these values is patent publication US20050112126A1 (Genentech, published 2005).
